Biological target: KIX domain (residues 586–672) of human CREB binding protein (CBP) (human, UniProt Q92793 586-672)
Assay: NMR solution structure

KIX domain (residues 586–672) of human CREB binding protein (CBP), sequence (Q92793 586-672): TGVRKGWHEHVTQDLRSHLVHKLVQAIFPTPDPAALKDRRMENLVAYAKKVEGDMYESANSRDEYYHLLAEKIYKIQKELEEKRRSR

Binder: DAGNILPSDIMDFVLKNTP (peptide, UniProt Q03164 2840-2858, looked up)
- binding result: binds

Reference: publication PMC3719477 (ACS Chemical Biology, 2013)
